Data from US20050123563A1 (INTEGRAL MOLECULAR, published 2005).

B1: CXCR4 (chemokine receptor, GPCR) incorporated into lipoparticles (receptor, UniProt P61073 1-352, looked up)
chain: MEGISIYTSDNYTEEMGSGDYDSMKEPCFREENANFNKIFLPTIYSIIFLTGIVGNGLVILVMGYQKKLRSMTDKYRLHLSVADLLFVITLPFWAVDAVANWYFGNFLCKAVHVIYTVNLYSSVLILAFISLDRYLAIVHATNSQRPRKLLAEKVVYVGVWIPALLLTIPDFIFANVSEADDRYICDRFYPNDLWVVVFQFQHIMVGLILPGIVILSCYCIIISKLSHSKGHQKRKALKTTVILILAFFACWLPYYIGISIDSFILLEIIKQGCEFENTVHKWISITEALAFFHCCLNPILYAFLGAKFKTSAQHALTSVSRGSSLKILSKGKRGGHSSVSTESESSSFHSS
notes: whole, on cells; also called CXCR4-lipoparticles; CXCR4-containing lipoparticles
B2: CXCR3 incorporated into lipoparticles (receptor, UniProt P49682 1-368, looked up)
chain: MVLEVSDHQVLNDAEVAALLENFSSSYDYGENESDSCCTSPPCPQDFSLNFDRAFLPALYSLLFLLGLLGNGAVAAVLLSRRTALSSTDTFLLHLAVADTLLVLTLPLWAVDAAVQWVFGSGLCKVAGALFNINFYAGALLLACISFDRYLNIVHATQLYRRGPPARVTLTCLAVWGLCLLFALPDFIFLSAHHDERLNATHCQYNFPQVGRTALRVLQLVAGFLLPLLVMAYCYAHILAVLLVSRGQRRLRAMRLVVVVVVAFALCWTPYHLVVLVDILMDLGALARNCGRESRVDVAKSVTSGLGYMHCCLNPLLYAFVGVKFRERMWMLLLRLGCPNQRGLQRQPSSSRRDSSWSETSEASYSGL
notes: whole, on cells

Assays:
[1] = target: T1, Protein A (ProA) beads bearing no antibody (Staphylococcal, UniProt P38507 37-477); experiment: fluorescence microscopy of Protein A beads without antibody, probed with fluorescent lipoparticles containing CXCR4
T1 construct: also called no antibody control

[2] = target: T2, SDF-1 (unlabeled chemokine, 8 kDa) (UniProt P48061-2 22-89); experiment: radioligand competition on CXCR4 lipoparticles: increasing cold SDF-1 against 0.1 nM radiolabeled SDF-1α, 1 h at room temperature, filtration through GF/C filters, gamma counting [box at the upper right]
T2 construct: also called 8 kDa natural ligand (SDF-1); cold ligand (Peprotech)

[3] = target: T3, Radiolabeled SDF-1α (Perkin-Elmer) (UniProt P48061-2 22-89); experiment: radioligand binding: fixed radiolabeled SDF-1α with CXCR3 lipoparticles, filtration, gamma counting
T3 construct: also called radioligand

Row | Binder | binding result [1] | Kd [2] | binding result [3]
1 | B1 | no binding | 8.53 nM | –
2 | B2 | – | – | no binding (tested: about 1.25 ug lipoparticles)
